In article PMC11480844 (2024):

B1: H2-Kb / Ed16-1 (parent complex)
chain 1: GEQVEQRPPHLSVREGDSAVITCTYTDPNSYYFFWYKQEPGASLQLLMKVFSSTEINEGQGFTVLLNKKDKRLSLNLTAAHPGDSAAYFCAVSGSNNRIFFGDGTQLVVKP
chain 2: EAAVTQSPRSKVAVTGGKVTLSCHQTNNHDYMYWYRQDTGHGLRLIHYSYVADSTEKGDIPDGYKASRPSQENFSLILELASLSQTAVYFCASRTGTDYTFGSGTRLLVI
chain 3: not shown
chain 4: IQKTPQIQVYSRHPPENGKPNILNCYVTQFHPPHIEIQMLKNGKKIPKVEMSDMSFSKDWSFYILAHTEFTPTETDTYACRVKHDSMAEPKTVYWDRDM
chain 5: SIINFEKL

Variants of: B1
Assay: % of reporter cells activated (NFAT-GFP), raw; further: test concentration or dose not given here

ratio to parent | Variant
0.0174 | chain 5 E6A
0.00912 | chain 5 E6C
0.371 | chain 5 E6D
0.0059 | chain 5 E6L
0.00132 | chain 5 E6P
0.0535 | chain 5 E6N
0.0356 | chain 5 E6T
0.0513 | chain 5 E6S
0.219 | chain 5 E6M
0.117 | chain 5 E6W
0.153 | chain 5 E6F
0.0059 | chain 5 E6I
0.106 | chain 5 E6Y
0.187 | chain 5 E6G
0.00877 | chain 5 E6R
0.00707 | chain 5 E6V
0.608 | chain 5 E6K
0.0978 | chain 5 E6H
0.187 | chain 5 E6Q
0.743 | chain 5 I2K
0.926 | chain 5 I2T
0.607 | chain 5 I2N
1.04 | chain 5 I2C
0.651 | chain 5 I2R
0.849 | chain 5 I2F

ratio to parent | Variant
0.627 | chain 5 I2H
1.06 | chain 5 I2M
1.04 | chain 5 I2G
0.976 | chain 5 I2E
1.1 | chain 5 I2V
0.597 | chain 5 I2Y
0.912 | chain 5 I2D
1.01 | chain 5 I2A
0.713 | chain 5 I2Q
1.08 | chain 5 I2L
0.749 | chain 5 I2W
0.94 | chain 5 I2S
0.794 | chain 5 I2P
0.85 | chain 5 L8C
0.968 | chain 5 L8T
0.834 | chain 5 L8D
1.01 | chain 5 L8A
1 | chain 5 L8Y
1.02 | chain 5 L8I
0.828 | chain 5 L8W
1.01 | chain 5 L8H
0.883 | chain 5 L8E
1.07 | chain 5 L8P
0.861 | chain 5 L8N
0.935 | chain 5 L8R

ratio to parent | Variant
1.03 | chain 5 L8M
0.941 | chain 5 L8S
0.994 | chain 5 L8G
0.83 | chain 5 L8V
0.952 | chain 5 L8F
1.07 | chain 5 L8Q
0.181 | chain 5 F5P
0.516 | chain 5 F5G
0.917 | chain 5 F5S
0.742 | chain 5 F5E
0.818 | chain 5 F5R
1.08 | chain 5 F5M
0.943 | chain 5 F5H
1.02 | chain 5 F5L
0.97 | chain 5 F5Q
0.699 | chain 5 F5W
0.96 | chain 5 F5I
0.725 | chain 5 F5N
0.803 | chain 5 F5K
0.843 | chain 5 F5T
1.07 | chain 5 F5Y
0.823 | chain 5 F5D
0.943 | chain 5 F5C
0.976 | chain 5 F5A
0.848 | chain 5 F5V

ratio to parent | Variant
0.0158 | chain 5 N4H
0.0165 | chain 5 N4I
0.0188 | chain 5 N4P
0.0463 | chain 5 N4G
0.0372 | chain 5 N4D
0.000537 | chain 5 N4Q
0.211 | chain 5 N4K
0.021 | chain 5 N4Y
0.617 | chain 5 N4L
0.0025 | chain 5 N4W
0.492 | chain 5 N4S
0.00253 | chain 5 N4C
0.000769 | chain 5 N4M
0.00277 | chain 5 N4E
0.00138 | chain 5 N4V
0.19 | chain 5 N4R
0.0307 | chain 5 N4T
0.0302 | chain 5 N4F
0.124 | chain 5 N4A
0.0326 | chain 5 S1N
0.00107 | chain 5 S1L
0.0746 | chain 5 S1E
0.00277 | chain 5 S1P
0.419 | chain 5 S1Y
0.66 | chain 5 S1T

ratio to parent | Variant
0.0527 | chain 5 S1Q
0.00139 | chain 5 S1I
0.0013 | chain 5 S1F
0.521 | chain 5 S1G
0.48 | chain 5 S1A
0.0551 | chain 5 S1C
0.0909 | chain 5 S1R
0.038 | chain 5 S1K
0.199 | chain 5 S1H
0.0447 | chain 5 S1W
0.0177 | chain 5 S1V
0.0059 | chain 5 S1M
0.905 | chain 5 K7T
0.903 | chain 5 K7N
0.632 | chain 5 K7F
1.17 | chain 5 K7P
0.979 | chain 5 K7D
0.847 | chain 5 K7I
0.848 | chain 5 K7M
1.04 | chain 5 K7Y
0.771 | chain 5 K7V
1.09 | chain 5 K7R
0.781 | chain 5 K7C
0.924 | chain 5 K7G
0.832 | chain 5 K7L

ratio to parent | Variant
0.559 | chain 5 K7E
0.91 | chain 5 K7A
0.912 | chain 5 K7S
0.776 | chain 5 K7W
1.01 | chain 5 K7Q
1.18 | chain 5 K7H
1.06 | chain 5 I3V
0.592 | chain 5 I3S
0.172 | chain 5 I3D
0.883 | chain 5 I3A
0.473 | chain 5 I3G
0.865 | chain 5 I3P
0.777 | chain 5 I3C
0.00742 | chain 5 I3Y
0.521 | chain 5 I3K
0.889 | chain 5 I3L
0.842 | chain 5 I3M
0.864 | chain 5 I3E
0.755 | chain 5 I3N
0.716 | chain 5 I3T
0.301 | chain 5 I3R
0.605 | chain 5 I3Q
0.33 | chain 5 I3H
0.744 | chain 5 I3W
0.0814 | chain 5 I3F
